Consider one substance from PMC4570671, “A Novel Aldo-Keto Reductase (AKR17A1) of Anabaena sp. PCC 7120 Degrades the Rice Field Herbicide Butachlor and Confers Tolerance to Abiotic Stresses in E. coli” (PLoS ONE, 2015).

Among the test systems are CC(=O)C=O; CCOC(=O)C(C)=O; O=C1Nc2ccccc2C1=O; O=Cc1ccccc1[N+](=O)[O-]; O=Cc1ccccc1.
Test in all cases: purified protein
Settings in all cases: 0.12 mM NADPH, 50 mM potassium phosphate pH 7.4, 10 mM 2-mercaptoethanol, 37°C

Data set [1] has as its system CCCCOCN(C(=O)CCl)c1c(CC)cccc1CC.

As for “AKR17A1 (All2316) (Nostoc sp. PCC 7120 = FACHB-418)”, the Km with CC(=O)C=O is reported as 4.164 (0.973) mM; in data set [1], 0.548 (0.190) mM; in the data set with CCOC(=O)C(C)=O it was 6.213 (2.214) mM; in the data set on O=C1Nc2ccccc2C1=O, 0.011 (0.005) mM; with O=Cc1ccccc1[N+](=O)[O-], 0.014 (0.002) mM; with O=Cc1ccccc1 it was 3.740 (1.098) mM. The kcat (in general, the number of substrate molecules converted per active site and unit of time at saturation) in the data set with CC(=O)C=O is 1.6 s⁻¹; in data set [1], 2.11 s⁻¹; in the data set with CCOC(=O)C(C)=O, 1.43 s⁻¹; in the data set on O=C1Nc2ccccc2C1=O it was 1.58 s⁻¹; with O=Cc1ccccc1[N+](=O)[O-] it was 1.59 s⁻¹; in the data set on O=Cc1ccccc1, 1.51 s⁻¹. Further, the kcat/Km (commonly the second-order rate constant that governs catalysis at low substrate concentration) in the data set with CC(=O)C=O came out at 383 M⁻¹ s⁻¹; in data set [1], 3840 M⁻¹ s⁻¹; in the data set on CCOC(=O)C(C)=O it was 228 M⁻¹ s⁻¹; in the data set on O=C1Nc2ccccc2C1=O, 136000 M⁻¹ s⁻¹; with O=Cc1ccccc1[N+](=O)[O-], 114000 M⁻¹ s⁻¹; in the data set with O=Cc1ccccc1, 404 M⁻¹ s⁻¹.
